# Assay results published in publication PMC7801473 (2021).
# B1: NLRP1^CARD (M2H fusion) [human] / ASC^CARD (M2H fusion) [human] (parent complex)
# chain 1: DAPQLLHFVDQYREQLIARVTSVEVVLDKLHGQVLSQEQYERVLAENTRPSQMRKLFSLSQSWDRKCKDGLYQALKETHPHLIMELWEKG
# chain 2: AAKPGLHFIDQHRAALIARVTNVEWLLDALYGKVLTDEQYQAVRAEPTNPSKMRKLFSFTPAWNWTCKDLLLQALRESQSYLVEDLERS
# B2: ASC^CARD (M2H fusion) [human] / NLRP1^CARD (M2H fusion) [human] (parent complex)
# chain 1: B1 chain 2
# chain 2: B1 chain 1
# Variants of: B1
# Assay: M2H (mammalian two-hybrid, luciferase); HEK293T cells; GAL(DBD)-ASC^CARD with VP16-NLRP1^CARD; luciferase normalized to Renilla; parent: 3; read off a plot
row,Variant,response
1,chain 1 DAPQLLHFVDQYREQLIARVTSVEVVLDKLHGQVLSQEQYERVLAENTRPSQMAKLFSLSQSWDRKCKDGLYQALKETHPHLIMELWEKG [chain 1 R54A],~1.5 fold of negative control
2,chain 1 DAPQLLHFVDQYREQLIAAVTSVEVVLDKLHGQVLSQEQYERVLAENTRPSQMRKLFSLSQSWDRKCKDGLYQALKETHPHLIMELWEKG [chain 1 R19A],~1.1 fold of negative control
3,"chain 1 DAPQLLHFVDQYREQLIAAVTSVEVVLDKLHGQVLSQEQYERVLAENTAPSQMRKLFSLSQSWDRKCKDGLYQALKETHPHLIMELWEKG [chain 1 R19A, chain 1 R49A]",~1.8 fold of negative control
4,"chain 1 DAPQLLHFVDQYREQLIARVTSVRVVLKKLHGQVLSQEQYERVLAENTRPSQMRKLFSLSQSWDRKCKDGLYQALKETHPHLIMELWEKG [chain 1 E24R, chain 1 D28K]",~0.77 fold of negative control

# Results, then the variant that gave them:
row,response,Variant
1,~0.97 fold of negative control,"chain 1 DAPQLLHFVDQYREQLIARVTSVEVVLDKLHGQVLSQEQYERVLAENTRPSQMRKLFSLSQSGKRKCKDGLYQALKETHPHLIMELWEKG [chain 1 W63G, chain 1 D64K]"
2,~1.7 fold of negative control,"chain 1 DAPQLLHFVDQYREQLIARVTSVEVVLDKLHGQVLSAEQYRRVLAENTRPSQMRKLFSLSQSWDRKCKDGLYQALKETHPHLIMELWEKG [chain 1 Q37A, chain 1 E41R]"
3,~0.98 fold of negative control,chain 1 DAPQLLHFVDQYREQLIARVTSVEVVLDKLHGQVLSQEQYERVLAENTRPSQMRKLFSLSQSWDRKCKDGLYQALKETHPELIMELWEKG [chain 1 H81E]

# Variants of: B2
# Assay: M2H (mammalian two-hybrid, luciferase); HEK293T cells; GAL(DBD)-NLRP1^CARD with VP16-ASC^CARD; luciferase normalized to Renilla; parent: 2.1; read off a plot
row,Variant,response
1,"chain 1 AAKPGLHFIDQHRAALIARVTAVRWLLDALYGKVLTDEQYQAVRAEPTNPSKMRKLFSFTPAWNWTCKDLLLQALRESQSYLVEDLERS [chain 1 N22A, chain 1 E24R]",~0.8 fold of negative control
2,chain 1 AAKPGLHFIDQHRAALIARVTNVEWLLDALYGKVLTDEQYQAVRAEPTNPSKMEKLFSFTPAWNWTCKDLLLQALRESQSYLVEDLERS [chain 1 R54E],~0.87 fold of negative control
3,chain 1 AAKPGLHFIDQHDAALIARVTNVEWLLDALYGKVLTDEQYQAVRAEPTNPSKMRKLFSFTPAWNWTCKDLLLQALRESQSYLVEDLERS [chain 1 R13D],~0.57 fold of negative control
4,"chain 1 AAKPGLHFIDQHRAALIARVTNVEWLLDALYGKVLTAAQYQAVRAEPTNPSKMRKLFSFTPAWNWTCKDLLLQALRESQSYLVEDLERS [chain 1 D37A, chain 1 E38A]",~1.4 fold of negative control

# Other lines, results leading:
row,response,Variant
1,~1.1 fold of negative control,"chain 1 AAKPGLHFIDQHRAALIAAVANVEWLLDALYGKVLTDEQYQAVRAEPTNPSKMRKLFSFTPAWNWTCKDLLLQALRESQSYLVEDLERS [chain 1 R19A, chain 1 T21A]"
2,~1.2 fold of negative control,"chain 1 AAKPGLHFIDQHRAALIARVTNVEWLLDALYGKVLTDEQYQAVRAEPTNPSKMRKLFSFTPAGAWTCKDLLLQALRESQSYLVEDLERS [chain 1 W63G, chain 1 N64A]"
3,~0.78 fold of negative control,chain 1 AAKPGLHFIDQHRAALIARVTNVEWLLKALYGKVLTDEQYQAVRAEPTNPSKMRKLFSFTPAWNWTCKDLLLQALRESQSYLVEDLERS [chain 1 D28K]
